Key:
Assay in all cases: pull-down binding Z-score (relative to library population); higher = stronger binding
Details in all cases: RNA library: Library-2
TO-N3 (biotin conjugate) = test system: TO-N3 (biotin conjugate)
Procedure, shortened: (§1)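 The RNA library, end-labelled with Cy5 or Cy3, was heat-folded in phosphate/NaCl/KCl buffer, and 1 μg was incubated at 25 °C for 60 min with streptavidin beads carrying 100 pmol of biotin-conjugated small molecule. Hot SDS released the bound RNA, which was then hybridised to a DNA barcode microarray for 20 h at 55.5 °C. For scoring binding, signal from beads alone was subtracted, replicate barcoded probes were averaged after discarding the highest and lowest, and each value was turned into a Z-score from the library mean and standard deviation.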

[1] = test system: TO-3-N3 (biotin conjugate)
Procedure, shortened: as §1

[2] = test system: TO-N3-2 (biotin conjugate)
Procedure, shortened: as §1

[3] = test system: TO-3-N3-2 (biotin conjugate)
Procedure, shortened: as §1

Sequence	pull-down binding Z-score (TO-N3 (biotin conjugate))	pull-down binding Z-score [1]	pull-down binding Z-score [2]	pull-down binding Z-score [3]
CUUAUGUUGGUUGCCAUAACAAGUGUGCCUAUUGGGUUCCACGUGCUAGCGCUAACAUAGG	-1.11	-1.06	-0.75	-0.751
CUGGUCCAUGCUCAUACCCAAGCAGAAAGUGGCAGGCCCUCUUUGUAUCAGAAUGGACCAG [IAV_invivo_NS1_NEP_8_Motif_8+IAV_invivo_NS1_NEP_8_Motif_8]	-0.453	-0.528	0.562	-0.24
UGGGGAGUUGAACCUA [IAV_invivo_PB2_1_Motif_19+IAV_invivo_PB2_1_Motif_19]	0.376	0.448	-0.437	0.0385
GGAAUGGAUCCC [IAV_invivo_NP_5_Motif_9+IAV_invivo_NP_5_Motif_9]	-0.323	-0.119	-0.367	-0.0967
AACGGGGCGGGCCUCGGGCGGGGUAA [G4_2A2_VEGF-Pu22-mt3]	6.92	8.63	5.08	10.6
UAAACCACCCAUUAGUUUUCCAUUGUGUGCUAAUGGACAAGUUUUUGGUUUA [SHAPE_invivo_SARS-CoV-2_Motif_310]	-1	-0.757	-1.35	-0.357
GGCGUUGUCCUGCUGAAAUUGUUGACACUGUGAGUGCUUUGGUUUAUGAUAAUAAGCUUAAAGCACAUAAAGACAAAUCAGCUCAAUGCU	-0.324	-0.58	0.182	-0.302
UAAACACGCUUGUUAAACAACUUAGCUCCAAUUUUGGUGCAAUUUCAAGUGUUUUA [SHAPE_invitro_SARS-CoV-2_Motif_443]	-0.925	-0.82	-0.333	-0.221
CCAUGGGACAGGAACAGGAUACACCAUGG [IAV_invivo_PB1_2_Motif_4+IAV_invivo_PB1_2_Motif_4]	-0.056	-0.411	0.927	0.154
GCUUGGAGAAAAGC [SHAPE_invitro_SARS-CoV-2_Motif_326]	-0.705	-0.536	-0.491	-0.278
CUGAAAAAUGGGAAUCUGGAGUAAAAGACUGUGUUGUAUUACACAGUUACUUCACUUCAGACUAUUACCAG	-0.329	-0.376	-0.48	-0.182
GCCUUGAAGCCCCUUUUCUCUAUCUUUAUGCUUUAGUCUACUUCUUGCAGAGUAUAAACUUUGUAAGAAUAAUAAUGAGGC	0.232	0.275	0.166	0.362
GGACCUGAGCGCACCUGUUGUCU [SHAPE_invivo_SARS-CoV-2_Motif_351]	1.58	0.863	1.67	0.645
GCUGAGGCUUCUAAGAAGCCUCGGC	-1.05	-0.572	-1.43	-0.475
GCUGACACUACUGAUGCUGUCCGUGAUCCACAGACACUUGAGAUUCUUGACAUUACACCAUGUUCUUUUGGUGGUGUCAGU [SHAPE_invivo_SARS-CoV-2_Multi_58_ComplexLevel_1]	0.456	-0.0653	0.237	-0.3
CCUACUAAAAAGG	0.766	0.907	-0.0122	0.2
CUGACAAAGUUUUCAG	0.341	0.631	-0.543	-0.329
UGCAGCAGAAACGCUCA [SHAPE_invitro_SARS-CoV-2_Motif_303]	0.371	0.273	0.533	0.0228
GACUACUAGCGUGCCUUUGUAAGCACAAGCUGAUGAGUACGAACUUAUGUACUCAUUCGUUUCGGAAGAGACAGGUACGUUAAUAGUU [SHAPE_invitro_SARS-CoV-2_Multi_71_ComplexLevel_1]	0.649	0.389	0.672	0.392
GCUAUGGGUAUUAUUGCUAUGUCUGCUUUUGCAAUGAUGUUUGUCAAACAUAAGCAUGCAUUUCUCUGUUUGUUUUUGUUACCUUCUCUUGCCACUGUAGC	-0.98	-0.966	-0.573	-0.526
GUCUCGCACCCGCGAGAU [IAV_invivo_PB2_1_Motif_2+IAV_invivo_PB2_1_Motif_2]	0.279	0.583	-0.742	-0.362
AAAUAAGUAUGAUACUUACCUG [U1snRNP5ss-4]	-0.506	-0.522	-0.672	-0.0682
UAUAAUAUGAGAGUUAUA	-0.233	-0.11	-0.882	-0.355

Sequence	pull-down binding Z-score (TO-N3 (biotin conjugate))	pull-down binding Z-score [1]	pull-down binding Z-score [2]	pull-down binding Z-score [3]
CCAUAAUGAAUCUGG [DMSMaPseq_invitro_SARS-CoV-2_Motif_27]	-0.345	-0.322	-0.529	-0.198
GUGGGGUAUUCAUCACCCGC [IAV_invivo_HA_4_Motif_9+IAV_invivo_HA_4_Motif_9]	1.62	1.69	0.897	0.689
CUGUUUGGAUGACAG	-0.871	-0.461	-1.01	-0.753
CAGACUUUAUGAGUGUCUCUAUAGAAAUAGAGAUGUUGACACAGACUUUGUGAAUGAGUUUUACGCAUAUUUGCGUAAACAUUUCUCAAUGAUGAUACUCUCUG	-1.21	-0.919	-1.1	-0.449
AAAUUCUUGGAACUGUUUCUUGGAAUUU	-1.22	-0.802	-1.37	-0.163
GGCCUGGGCCUGGGCCUGGGCCUGGGCCUGGGCCUG [r(GGCCUG)6]	-0.184	0.00804	0.12	-0.435
GGCCGCAAAUUGCACAAUUUGCCCCC [SHAPE_invivo_SARS-CoV-2_Motif_557]	0.62	0.76	-0.213	-0.187
AGUCCCUGUUGCUAUUCAUGCAGAUCAACUUACUCCUACUUGGCGUGUUUAUUCUACAGGUUCUAAUGUUUUUCAAACACGUGCAGGCUGUUUAAUAGGGGCU	-1.03	-0.948	-0.608	-0.638
GACUUCAGUAACUCAGGUUCUGAUGUU	-0.829	-0.751	-0.704	-0.426
GCUCAGGAUGGUAAUGCUGCUAUCAGC	0.203	-0.137	1.05	-0.00388
UAAAAUGAAUUAUCAAGUUA [DMSMaPseq_invitro_SARS-CoV-2_Motif_325]	-1.04	-0.703	-1.2	-0.451
UGCUGUUGUUAAAAUUUAUUGUCCAGCA [SHAPE_invitro_SARS-CoV-2_Motif_28]	-0.582	-0.341	-0.921	-0.134
GUGGAUGGUUAUGUUCAC	-0.236	0.0943	-0.628	-0.266
AUUUGAACUCUACUAAUGUCACUAUUGCAACCUACUGUACUGGUUCUAUACCUUGUAGUGUUUGUCUUAGUGGUUUAGAU	-1.06	-0.873	-0.913	-0.244
AUAAACCACCCAUUAGUUUUCCAUUGUGUGCUAAUGGACAAGUUUUUGGUUUAU	-1.34	-0.734	-1.1	-0.594
UGAUAGUCAACAAACUGUUGGUCAACAAGACGGCAGUGAGGACAAUCA	0.595	0.68	-0.167	0.241
CUAUACUGUUACUAGAUCAGGCAUUAGUGUCUGAUGUUGGUGAUAGUGCGG	-0.939	-0.845	-0.582	-0.622
UCUAACUUUAGAGUCCAACCAACAGAAUCUAUUGUUAGA	-0.148	0.171	-0.918	-0.138
GAGGCACUUAAAAUGACCAUGGCCUC [IAV_invivo_NS1_NEP_8_Motif_6+IAV_invivo_NS1_NEP_8_Motif_6]	0.233	0.555	-0.305	0.446
AGUCUUGUAGUGCGUUGUUCGUUCUAUGAAGACU	-0.932	-0.733	-1.06	-0.844
CAUGAGCAGUGCUGACUCAACUCAGGCCUAAACUCAUG	0.27	-0.197	0.83	0.0138
UGGGUUAUCUUCAACCUA	-0.726	-0.534	-0.937	-0.424
CAAGGACCUGCCUAAAGAAAUCACUGUUGCUACAUCACGAACGCUUUCUUAUUACAAAUUGGGAGCUUCGCAGCGUGUAGCAGGUGACUCAGGUUUUG [DMSMaPseq_invitro_SARS-CoV-2_Motif_486]	-0.158	-0.688	0.921	-0.309

Sequence	pull-down binding Z-score (TO-N3 (biotin conjugate))	pull-down binding Z-score [1]	pull-down binding Z-score [2]	pull-down binding Z-score [3]
AAGGAUGCUACUCCUU	-1.32	-0.922	-1.36	-0.789
GGCUGUAGUUGUGAUCAACUCCGCGAACCCAUGCUUCAGUCAGCUGAUGCACAAUCGUUUUUAAACGGGUUUGCGGUGUAAGUGCAGCC [DMSMaPseq_invitro_SARS-CoV-2_Motif_241]	-0.133	-0.355	0.388	-0.0355
CCAUUUGCUAUGCAAAUGG	-1.05	-0.562	-1.56	-0.677
GCACCUCAUGGUGU	0.66	0.707	-0.856	-0.649
UGAGUGUGACAUACCCAUUGGUGCAGGUAUAUGCGCUAGUUAUCAGACUCA	0.865	0.734	0.541	0.422
UCCAUUUUUGGGUGUUUAUUACCACAAAAACAACAAAAGUUGGA [SHAPE_invitro_SARS-CoV-2_Motif_398]	-1.29	-1.12	-0.616	0.136
AUCUUUCUGUGCUUUUGCUGUAGAUGCUGCUAAAGCUUACAAAGAU	0.0426	0.238	-0.263	0.0938
CUGGGCCAUAAGGACCAG [IAV_invivo_NP_5_Motif_20+IAV_invivo_NP_5_Motif_20]	-0.418	-0.0792	-0.786	-0.477
CAUGUUUAUCACCCGCGAAGAAGCUAUAAGACAUGUACGUGCAUGGAUUGGCUUCGAUGUCGAGGGGUGUCAUG [DMSMaPseq_invitro_SARS-CoV-2_Motif_326]	-0.771	-0.699	-0.0649	-0.363
GCUAAAUUGUUACAUAAACCUAUUGUUUGGCAUGUUAACAAUGCAACUAAUAAAGCCACGUAUAAACCAAAUACCUGGUGUAUACGUUGUCUUUGGAGC	-1.4	-1.1	-1.05	-0.0887
AUACCACUUAUGUACAAAGGACUUCCUUGGAAUGUAGUGCGUAU	-0.207	-0.527	0.76	-0.319
AACGGGGCGGGCCUUGGGCGGGGUAA [G4_2A2_VEGF-Pu22-mt]	7.05	8.69	5.19	10.6
AUGAGUACGAACUUAUGUACUCAU	-0.309	-0.0199	-1.18	-0.43
GGUUUUAUAGCUGGCUUGAUUGCCAUAGUAAUGGUGACAAUUAUGCUUUGCUGUAUGACC	-0.717	-0.96	-0.582	-0.541
AACCAGUUAACUGGUU [SHAPE_invivo_SARS-CoV-2_Motif_126]	0.00533	0.328	-1.24	-0.406
UCAAAAAGAAAUUGA [SHAPE_invivo_SARS-CoV-2_Motif_472]	-0.459	-0.145	-0.626	0.153
GGUCUAUAUGCC [SHAPE_invivo_SARS-CoV-2_Motif_218]	0.0896	0.153	-0.475	-0.349
GGUUUAGCUGCUGUUAAUAGUGUCCCUUGGGAUACUAUAGCUAAUUAUGCUAAGCC	0.141	0.621	-0.225	-0.323
UCCUAUUACGGA [SHAPE_invivo_SARS-CoV-2_Motif_121]	-0.905	-0.479	-1.27	-0.643
CCUGCCUGCCUGCCUG [r(CCUG)4]	0.872	0.588	0.703	0.0557
AUCACUAGGUUUCAAACUUUACUUGCUUUACAUAGAAGUUAUUUGACUCCUGGUGAU	-0.884	-0.735	-1.03	-0.375

From the supplement of paper PMC11865577
